According to IntAct's records for PubMed 30487161:

Target: egln1_human EGLN1 (UniProt Q9GZT9)
Sequence (Q9GZT9 whole entry, looked up): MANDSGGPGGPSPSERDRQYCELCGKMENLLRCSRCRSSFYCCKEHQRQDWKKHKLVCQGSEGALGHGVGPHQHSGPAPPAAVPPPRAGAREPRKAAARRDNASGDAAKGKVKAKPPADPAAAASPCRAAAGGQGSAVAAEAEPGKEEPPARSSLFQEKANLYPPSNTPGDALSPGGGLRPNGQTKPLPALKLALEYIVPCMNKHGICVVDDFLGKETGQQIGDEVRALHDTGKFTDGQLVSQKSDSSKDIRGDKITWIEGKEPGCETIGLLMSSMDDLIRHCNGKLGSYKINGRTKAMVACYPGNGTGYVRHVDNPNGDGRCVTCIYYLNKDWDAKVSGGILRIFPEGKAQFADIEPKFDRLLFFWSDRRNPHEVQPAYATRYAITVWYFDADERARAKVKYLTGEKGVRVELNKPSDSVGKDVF

Endothelial PAS domain-containing protein 1 (Homo sapiens), Q99814 G724W, sequence (Q99814 whole entry G724W, the tested form may be a part): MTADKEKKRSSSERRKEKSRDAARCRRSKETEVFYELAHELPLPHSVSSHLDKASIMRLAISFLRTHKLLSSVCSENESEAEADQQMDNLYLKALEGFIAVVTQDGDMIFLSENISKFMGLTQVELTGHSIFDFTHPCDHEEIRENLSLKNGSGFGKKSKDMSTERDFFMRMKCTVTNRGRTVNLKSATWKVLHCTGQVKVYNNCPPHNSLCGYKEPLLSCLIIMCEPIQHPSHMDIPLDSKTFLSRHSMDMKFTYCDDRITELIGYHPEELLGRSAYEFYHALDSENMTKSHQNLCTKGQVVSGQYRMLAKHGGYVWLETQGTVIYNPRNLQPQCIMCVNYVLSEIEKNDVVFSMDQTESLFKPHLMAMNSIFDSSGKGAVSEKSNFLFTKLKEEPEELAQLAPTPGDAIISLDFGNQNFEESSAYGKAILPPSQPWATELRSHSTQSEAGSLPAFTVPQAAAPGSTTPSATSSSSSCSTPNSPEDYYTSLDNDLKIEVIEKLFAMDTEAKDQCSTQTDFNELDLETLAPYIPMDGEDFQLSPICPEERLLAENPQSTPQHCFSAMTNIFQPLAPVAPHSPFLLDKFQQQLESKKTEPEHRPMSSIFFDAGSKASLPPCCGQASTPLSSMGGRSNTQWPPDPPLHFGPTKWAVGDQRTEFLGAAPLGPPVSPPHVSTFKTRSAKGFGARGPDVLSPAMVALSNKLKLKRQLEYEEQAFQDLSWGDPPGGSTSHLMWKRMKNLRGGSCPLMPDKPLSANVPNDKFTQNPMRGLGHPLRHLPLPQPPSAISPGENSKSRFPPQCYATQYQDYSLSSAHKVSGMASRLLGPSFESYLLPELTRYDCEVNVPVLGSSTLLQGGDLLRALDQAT
Endothelial PAS domain-containing protein 1 (Homo sapiens), Q99814 N203H, sequence (Q99814 whole entry N203H, the tested form may be a part): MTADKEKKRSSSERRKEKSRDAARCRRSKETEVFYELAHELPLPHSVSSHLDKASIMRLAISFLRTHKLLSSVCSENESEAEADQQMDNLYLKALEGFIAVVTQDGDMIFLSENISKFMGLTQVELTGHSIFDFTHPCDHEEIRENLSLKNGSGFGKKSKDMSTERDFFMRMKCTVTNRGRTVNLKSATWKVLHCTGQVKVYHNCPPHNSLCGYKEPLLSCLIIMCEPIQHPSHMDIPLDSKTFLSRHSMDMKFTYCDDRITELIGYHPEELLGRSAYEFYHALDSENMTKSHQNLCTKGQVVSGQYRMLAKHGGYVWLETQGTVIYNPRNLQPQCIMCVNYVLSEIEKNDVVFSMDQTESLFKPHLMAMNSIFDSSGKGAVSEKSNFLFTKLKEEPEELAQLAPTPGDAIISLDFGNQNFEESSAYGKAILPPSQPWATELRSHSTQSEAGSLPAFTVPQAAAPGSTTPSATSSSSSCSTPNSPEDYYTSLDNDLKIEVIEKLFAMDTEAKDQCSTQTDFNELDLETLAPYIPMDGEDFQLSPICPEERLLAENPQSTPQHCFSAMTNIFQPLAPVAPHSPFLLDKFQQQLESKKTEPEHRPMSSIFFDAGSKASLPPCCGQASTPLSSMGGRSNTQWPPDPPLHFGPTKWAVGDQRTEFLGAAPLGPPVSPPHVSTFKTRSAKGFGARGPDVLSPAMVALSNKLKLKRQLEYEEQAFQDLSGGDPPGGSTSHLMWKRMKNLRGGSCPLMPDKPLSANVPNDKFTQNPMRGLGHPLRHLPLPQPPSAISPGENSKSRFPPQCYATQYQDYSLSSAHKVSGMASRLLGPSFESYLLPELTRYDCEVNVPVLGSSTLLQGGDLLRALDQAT

| effect of a mutation on the interaction | Substance |
| --- | --- |
| increasing interaction strength | Endothelial PAS domain-containing protein 1 (Homo sapiens), Q99814 N203H |
| with no effect | Endothelial PAS domain-containing protein 1 (Homo sapiens), Q99814 G724W |
